Reference: US20250066503A1, “CELL INJURY INDUCING THERAPEUTIC DRUG FOR USE IN CANCER THERAPY” (CHUGAI SEIYAKU KABUSHIKI KAISHA, priority 2016, published 2025)

Target: human GPC3 (Homo sapiens, UniProt P51654)
Experiment: Affinity for human GPC3 by surface plasmon resonance (Biacore T200)
Type: binding
Details: soluble human GPC3; Table 13
Description: The activity to bind human GPC3 when using GL4 (SEQ ID NO: 41) and L0000 (SEQ ID NO: 53) as the L-chain variable regions was evaluated. This was performed using the molecular form of a single-arm antibody having a single Fab at the Fc region of a human IgG1 heterodimerized by the knobs-into-hole technique. H0000 (SEQ ID NO: 40) was used for the anti-GPC3 antibody H-chain variable region.
The affinity and binding rate constants of an anti-GPC3 antibody for an antigen were measured by the multi-cycle kinetics method of a surface plasmon resonance assay using Biacore™-T200 (GE Healthcare Japan). HBS-EP+(GE Healthcare Japan) was used for the running buffer, and an amine coupling kit (GE Healthcare Japan) was used to covalently bind Protein A/G to the CM5 chip (carboxymethyl dextran-coated chip). Each anti-GPC3 antibody was prepared so that approximately 100 RU will be captured by Protein A/G. Human GPC3 used as the analyte was prepared at 8, 16, 32, 64, and 128 nM using HBS-EP+. Measurements were carried out by first allowing Protein A/G to capture the antibody solution, and then injecting the human GPC3 solution at a flow rate of […] for three minutes to allow reaction to take place. Then, the solution was switched to HBS-EP+ and the dissociation phase was measured for 15 minutes. After completion of the dissociation phase measurement, the sensor chip was regenerated by washing with 10 mM Gly-HCl at pH 1.5. Measurement at the concentration of 0 was similarly carried out by allowing Protein A/G to capture the antibody solution, performing a three-minute HBS-EP+ injection to allow reaction to take place, and then switching to HBS-EP+ to measure the dissociation phase for 15 minutes. […]
CDR and FR were determined according to the Kabat definition (Kabat numbering).
First, point mutations were introduced into CDR1, CDR2, and CDR3 of the anti-human GPC3 bispecific antibody sequence produced in Reference Example 2, H0000-ERY27_HK (SEQ ID NO: 54), to prepare modified antibodies. Next, the affinity of these modified antibodies for soluble human GPC3 was determined.

human GPC3, sequence (P51654 25-563 limits assumed): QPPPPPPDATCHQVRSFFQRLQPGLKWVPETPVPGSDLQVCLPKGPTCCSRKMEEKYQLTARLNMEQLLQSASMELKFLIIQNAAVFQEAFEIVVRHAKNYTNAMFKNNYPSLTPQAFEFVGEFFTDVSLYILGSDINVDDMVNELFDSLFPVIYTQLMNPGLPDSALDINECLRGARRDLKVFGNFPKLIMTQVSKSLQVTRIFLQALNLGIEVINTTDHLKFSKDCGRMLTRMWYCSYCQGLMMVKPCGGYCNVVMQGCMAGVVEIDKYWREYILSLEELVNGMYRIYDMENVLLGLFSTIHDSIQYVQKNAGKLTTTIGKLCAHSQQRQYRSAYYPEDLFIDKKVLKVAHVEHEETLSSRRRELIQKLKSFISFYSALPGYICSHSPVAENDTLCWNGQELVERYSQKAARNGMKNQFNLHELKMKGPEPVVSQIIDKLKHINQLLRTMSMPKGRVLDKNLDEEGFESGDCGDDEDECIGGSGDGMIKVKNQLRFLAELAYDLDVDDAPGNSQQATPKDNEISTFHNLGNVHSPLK

Kd: 4.57 nM
B1: antibody-1: anti-human CD3ε chain and anti-human GPC3 bispecific antibody (antibody)
heavy: EVQLVETGGSLVQPGKSLKLTCATSGFTFSNAWMHWVRQSPEKQLEWVAQIKAKSNNYATYYAESVKGRFTISRDDSKSNIYLQMNSLKEEDTAVYYCRYVHYGAYYGVDAWGQGTSVTVSSASTKGPSVFPLAPSSKSTSGGTAALGCLVKDYFPEPVTVSWNSGALTSGVHTFPAVLQSSGLYSLSSVVTVPSSSLGTQTYICNVNHKPSNTKVDKKVEPKSCDKTHTCPPCPAPEAAGGPSVFLFPPKPKDTLMISRTPEVTCVVVDVSHEDPEVKFNWYVDGVEVHNAKTKPREEQYASTYRVVSVLTVLHQDWLNGKEYKCKVSNKALPAPIEKTISKAKGQPREPQVYTLPPSRCELTKNQVSLSCAVKGFYPSDIAVEWESNGQPENNYKTTPPVLDSDGSFFLVSKLTVDKSRWQQGNVFSCSVMHEALHNHYTQKSLSLSPDYKDDDDK
light: DVVMTQTPVSMSVSLGGQVSISCRSSQSLVHNNGNTYVSWYIQKPSQSPQLLIYKVSNRFSGISDRFSGSGSGTDFTLKISRVEPDDLGVYYCGQGTQDPYTFGAGTKLELKRTVAAPSVFIFPPSDEQLKSGTASVVCLLNNFYPREAKVQWKVDNALQSGNSQESVTEQDSKDSTYSLSSTLTLSKADYEKHKVYACEVTHQGLSSPVTKSFNRGEC
chain 1: DIVMTQSPLSLPVTPGEPASISCRSSQSLVHSNRNTYLHWYQQKPGQAPRLLIYKVSNRFSGVPDRFSGSGSGTDFTLKISRVEAEDVGVYYCSQNTHVPPTFGQGTKLEIKSSASTKGPSVFPLAPSSKSTSGGTAALGCLVKDYFPEPVTVSWNSGALTSGVHTFPAVLQSSGLYSLSSVVTVPSSSLGTQTYICNVNHKPSNTKVDKKVEPKSCDKTHTCPPCPAPEAAGGPSVFLFPPKPKDTLMISRTPEVTCVVVDVSHEDPEVKFNWYVDGVEVHNAKTKPREEQYASTYRVVSVLTVLHQDWLNGKEYKCKVSNKALPAPIEKTISKAKGQPREPQVCTLPPSRDELTKNQVSLWCLVKGFYPSDIAVEWESNGQPENNYKTTPPVLDSDGSFFLYSKLTVDKSRWQQGNVFSCSVMHEALHNHYTQKSLSLSPHHHHHHHH
chain 2: QVQLVQSGAEVKKPGASVKVSCKASGYTFTDYEMHWIRQPPGQGLEWIGAIDPKTGDTAYSQKFKGRVTLTADKSTSTAYMELSSLTSEDTAVYYCTRFYSYTYWGQGTLVTVSSASVAAPSVFIFPPSDEQLKSGTASVVCLLNNFYPREAKVQWKVDNALQSGNSQESVTEQDSKDSTYSLSSTLTLSKADYEKHKVYACEVTHQGLSSPVTKSFNRGEC
